Laboratory results: patent publication US20200199241A1 (Chugai, published 2020)
Changes are numbered by the printed parent chain. Numbers in names are those of the source.

T1: human FcγRIIa(H) (human, UniProt P12318 36-217)
T1 construct: also called hFcgRIIa(H); FcγRIIa type H
T1 sequence: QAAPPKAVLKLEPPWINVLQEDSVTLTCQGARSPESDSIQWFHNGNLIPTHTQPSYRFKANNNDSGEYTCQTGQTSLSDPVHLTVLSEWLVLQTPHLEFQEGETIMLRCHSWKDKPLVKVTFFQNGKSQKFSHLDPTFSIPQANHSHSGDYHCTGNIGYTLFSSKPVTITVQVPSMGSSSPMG

T2: human FcγRIIa(R) (human, UniProt P12318 36-217)
T2 construct: also called hFcgRIIa(R); FcγRIIa type R
T2 chain: T1 sequence with H133R

T3: FcγRIIb (human, UniProt P31994 43-217, limits assumed)
T3 construct: also called FcgRIIb; FcγIIB
T3 sequence: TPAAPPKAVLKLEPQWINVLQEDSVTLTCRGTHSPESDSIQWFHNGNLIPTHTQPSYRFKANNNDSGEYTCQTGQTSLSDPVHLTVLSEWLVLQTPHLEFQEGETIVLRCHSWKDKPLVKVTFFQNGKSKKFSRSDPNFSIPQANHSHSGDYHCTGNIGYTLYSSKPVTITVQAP

T4: FcγRIIa type H (human, UniProt P12318 36-217)
T4 construct: also called FcγRIIaH; FcγRIIH
T4 sequence: T1 sequence

B1: antibody with VH3-IgG1-F1324 heavy chain and L(WT)-CK light chain (antibody)
heavy: QVQLQESGPGLVKPSETLSLTCAVSGHSISHDHAWSWVRQPPGEGLEWIGFISYSGITNYNPSLQGRVTISRDNSKNTLYLQMNSLRAEDTAVYYCARSLARTTAMDYWGEGTLVTVSSASTKGPSVFPLAPSSKSTSGGTAALGCLVKDYFPEPVTVSWNSGALTSGVHTFPAVLQSSGLYSLSSVVTVPSSSLGTQTYICNVNHKPSNTKVDKKVEPKSCDKTHTCPPCPAPEAAGGPSVFLFPPKPKDTLYISRTPEVTCVVVDVSHEDPEVKFNWYVDGVEVHNAKTKPREEQYNSTYRVVSVLTVLHQDWLNGKEYKCKVSNKALPAPIEKTISKAKGQPREPQVYTLPPSRDELTKNQVSLTCLVKGFYPSDIAVEWESNGQPENNYKTTPPVLDSDGSFFLYSKLTVDKSRWQQGNVFSCSVMHEALHYHVTQKSLSLSP
light: not shown
notes: L234A/L235A on VH3-IgG1-F890; copies: 2 + 2
B2: IL6R-2B169/IL6R-L (antibody, human IgG1)
heavy: B1 heavy with A236L, A237L, P240D, Y254M, V325I, Y436N, V438Y, K441E
light: DIQMTQSPSSLSASVGDRVTITCRASQDISSYLNWYQQKPGKAPKLLIYYTSRLHSGVPSRFSGSGSGTDFTFTISSLQPEDIATYYCQQGNTLPYTFGQGTKVEIK
notes: IgG1; Fc variant of IL6R-B3; copies: 2 + 2
B3: IL6R-BP912/IL6R-L (antibody, human IgG1)
heavy: B1 heavy with A236L, A237L, P240D, Y254M, A332R, Y436N, V438Y, K441E
light: B2 light
notes: as for B2
B4: IL6R-BP121/IL6R-L (antibody, human IgG1)
heavy: B1 heavy with A236L, A237L, P240D, Y254M, K328Q, Y436N, V438Y, K441E
light: B2 light
notes: as for B2
B5: IL6R-2B128/IL6R-L (antibody, human IgG1)
heavy: B1 heavy with A236L, A237L, P240D, Y254M, Y298D, Y436N, V438Y, K441E
light: B2 light
notes: as for B2

Assays:
[1] = biological target: T1, human FcγRIIa(H); test: SPR, antibody captured by Protein L, human FcγR as analyte, pH 7.4, 25 C;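 note: biacore T100 or T200 with Protein L amine-coupled on a CM4 chip, FcγRs diluted in ACES saline with polysorbate 20, buffer-only injection as blank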
Description: (§1) Binding activity between the antibodies and human FcγRIa, FcγRIIa(H), FcγRIIa(R), FcγRIIb and FcγRIIIa(F) (hereinafter referred to as human FcγRs) was evaluated using the BIACORE™ T100 or T200 surface plasmon resonance system (GE Healthcare). The antibodies being tested were captured by Protein L (ACTIGEN® protein (Alltech)) that was immobilized in suitable amounts on the CM4 Sensor Chip (GE Healthcare) by amine coupling. Next, the diluted human FcγRs and a running buffer used as a blank were injected to allow interaction with the antibodies captured on the sensor chip. A buffer consisting of 20 mmol/L N-(2-acetamido)-2-aminoethanesulfonic acid (ACES), 150 mmol/L NaCl and 0.05% (w/v) polysorbate 20 (Tween 20®) (pH 7.4) was used for the running buffer, and this buffer was also used to dilute the human FcγRs. 10 mmol/L glycine-HCl (pH 1.5) was used to regenerate the sensor chip. All measurements were carried out at 25° C.

[2] = biological target: T2, human FcγRIIa(R); test: as above
Description: as §1

[3] = biological target: T5, human FcγRIIIa(V) (human, UniProt P08637 17-208, limits assumed); test: as above
T5 construct: also called hFcgRIIIa(V); allotype V158
Description: as §1

[4] = biological target: T6, human FcγRIa (human, UniProt P12314 16-292, limits assumed); test: as above
T6 construct: also called hFcgRIa; hFcgRI
Description: as §1

[5] = biological target: T3, FcγRIIb; test: SPR (Biacore), FcγR over captured antibody
[6] = biological target: T7, FcγRIa (human, UniProt P12314 16-292, limits assumed); test: SPR (Biacore), FcγR over captured antibody
T7 construct: also called FcgRIa; CD64

[7] = biological target: T4, FcγRIIa type H; test: SPR (Biacore), FcγR over captured antibody
[8] = biological target: T8, FcγRIIIa type V (human, UniProt P08637 17-208, limits assumed); test: SPR (Biacore), FcγR over captured antibody
T8 construct: also called FcγRIIIaV; FcgRIIIaV

[9] = biological target: T3, FcγRIIb; test: SPR (Biacore), KD of IL6R-B3/IL6R-L divided by KD of the variant

T7 sequence (P12314 16-292 limits assumed): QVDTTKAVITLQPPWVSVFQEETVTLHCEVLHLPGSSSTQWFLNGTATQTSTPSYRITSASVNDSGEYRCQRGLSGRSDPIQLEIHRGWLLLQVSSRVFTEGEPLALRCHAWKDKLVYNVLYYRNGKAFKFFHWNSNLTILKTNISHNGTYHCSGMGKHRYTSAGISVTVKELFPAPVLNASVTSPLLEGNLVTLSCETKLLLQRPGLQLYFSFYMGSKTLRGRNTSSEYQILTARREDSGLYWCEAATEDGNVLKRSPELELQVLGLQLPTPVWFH
T8 sequence (P08637 other isoform, or with tags, fused parts or gaps limits assumed): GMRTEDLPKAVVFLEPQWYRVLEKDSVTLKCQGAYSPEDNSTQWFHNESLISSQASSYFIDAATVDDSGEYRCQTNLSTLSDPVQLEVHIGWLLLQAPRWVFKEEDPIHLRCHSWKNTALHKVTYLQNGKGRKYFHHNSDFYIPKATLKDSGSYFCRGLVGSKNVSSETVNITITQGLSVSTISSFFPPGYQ
T6 sequence (P12314 16-292 limits assumed): as the sequence (P12314 16-292 limits assumed) above
T5 sequence (P08637 other isoform, or with tags, fused parts or gaps limits assumed): as the sequence (P08637 other isoform, or with tags, fused parts or gaps limits assumed) above

Binder	BINDING AMOUNT (RU) [1] [RU]	BINDING AMOUNT (RU) [2] [RU]	BINDING AMOUNT (RU) [3] [RU]	BINDING AMOUNT (RU) [4] [RU]	Kd [5] [µM]	Kd [6] [µM]	Kd [7] [µM]	Kd [8] [µM]	KD(IIb) of the parent polypeptide/KD(IIb) of altered polypeptide [9] [fold]
B1	6.97	9.1	39.5	227					
B2					1.2	0.025	48	75	2.6
B3					1.5	0.038	38	78	2.1
B4					1.1	0.011	44	52	2.8
B5					1.4	0.013	34	72	2.1
